Here are results for 1 substance from patent US20180072805A1.

The test concerns the target recombinant human soluble Flt-1 (human) (UniProt P17948). In words: competition ELISA, inhibition of human sFlt-1:VEGF binding. On the technique in general: In an ELISA, binding on a coated surface is turned into a signal by an enzyme label.
Chain of UniProt P17948 (P17948 other isoform, or with tags, fused parts or gaps limits assumed): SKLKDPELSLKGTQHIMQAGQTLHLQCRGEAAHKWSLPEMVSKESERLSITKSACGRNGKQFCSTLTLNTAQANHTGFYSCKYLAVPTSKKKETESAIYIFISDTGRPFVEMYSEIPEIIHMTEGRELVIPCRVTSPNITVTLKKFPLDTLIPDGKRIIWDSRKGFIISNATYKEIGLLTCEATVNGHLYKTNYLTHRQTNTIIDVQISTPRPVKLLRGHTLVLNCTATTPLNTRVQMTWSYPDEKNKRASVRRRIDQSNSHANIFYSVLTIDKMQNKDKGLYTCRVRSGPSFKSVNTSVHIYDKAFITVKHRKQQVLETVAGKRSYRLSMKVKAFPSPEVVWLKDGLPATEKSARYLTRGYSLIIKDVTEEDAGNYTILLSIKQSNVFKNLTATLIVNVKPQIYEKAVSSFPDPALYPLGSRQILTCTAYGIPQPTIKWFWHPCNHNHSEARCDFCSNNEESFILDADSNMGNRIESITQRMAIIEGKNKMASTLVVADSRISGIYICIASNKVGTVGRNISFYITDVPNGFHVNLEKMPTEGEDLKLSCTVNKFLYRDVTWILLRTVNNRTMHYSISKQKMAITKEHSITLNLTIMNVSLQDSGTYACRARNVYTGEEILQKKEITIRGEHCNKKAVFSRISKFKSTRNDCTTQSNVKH

In the case of Abcam56300 (antibody), the IC50 (read off the curve) stood at 10 ng/mL.
